Test results from article PMC11096021 (Immunity, 2024).

Molecular target: A/Perth/16/2009 H3 trimer (biotinylated, for BLI) (Influenza A virus A/Perth/16/2009 (H3N2), strain, biotin on the avi tag (BirA))
Experiment: BLI
Details: both partners purified

B1: 09–1B12 Fab (mature; Lys-C digest of recombinant IgG, used for BLI) (Fab, V domains shown)
VH: QVQLVQSAPEVKRPGASVRLSCKASGYTFNTYGIIWVRQAPGQGLEWMGWISAYTGNTNYAQKVQGRVTMTTDITTSTAYLELRGLRSDDTAVYYCARGLLQGAVILDSYHYALDFWGQGTTVTVSS
VL: EIVLTQSPGTLSLSPGERATLSCRASQSVTNRFIAWYQHKPGQSPRLLIYGASSRATGIPDRFSGRGSGTDFTLTISRLEPEDFAVYYCQQYDTSPRWTFGQGTKLEIK
Does B1 bind?
Result: binds
